Data published in the supplement of paper PMC10065799, “High-throughput profiling of sequence recognition by tyrosine kinases and SH2 domains using bacterial peptide display” (eLife, 2023).

How the values were obtained:
AncSZ = experiment: phosphorylation enrichment, bacterial display (enrichment ratio); higher = better substrate or ligand; peptides without Tyr show the background
EPHB1 = EPHB1 (UniProt P54762); experiment: as above
EPHB2 = EPHB2 (UniProt P29323); experiment: as above
FGFR1 = FGFR1 (UniProt P11362); experiment: as above
Sequence of FGFR1 (P11362 whole entry, looked up): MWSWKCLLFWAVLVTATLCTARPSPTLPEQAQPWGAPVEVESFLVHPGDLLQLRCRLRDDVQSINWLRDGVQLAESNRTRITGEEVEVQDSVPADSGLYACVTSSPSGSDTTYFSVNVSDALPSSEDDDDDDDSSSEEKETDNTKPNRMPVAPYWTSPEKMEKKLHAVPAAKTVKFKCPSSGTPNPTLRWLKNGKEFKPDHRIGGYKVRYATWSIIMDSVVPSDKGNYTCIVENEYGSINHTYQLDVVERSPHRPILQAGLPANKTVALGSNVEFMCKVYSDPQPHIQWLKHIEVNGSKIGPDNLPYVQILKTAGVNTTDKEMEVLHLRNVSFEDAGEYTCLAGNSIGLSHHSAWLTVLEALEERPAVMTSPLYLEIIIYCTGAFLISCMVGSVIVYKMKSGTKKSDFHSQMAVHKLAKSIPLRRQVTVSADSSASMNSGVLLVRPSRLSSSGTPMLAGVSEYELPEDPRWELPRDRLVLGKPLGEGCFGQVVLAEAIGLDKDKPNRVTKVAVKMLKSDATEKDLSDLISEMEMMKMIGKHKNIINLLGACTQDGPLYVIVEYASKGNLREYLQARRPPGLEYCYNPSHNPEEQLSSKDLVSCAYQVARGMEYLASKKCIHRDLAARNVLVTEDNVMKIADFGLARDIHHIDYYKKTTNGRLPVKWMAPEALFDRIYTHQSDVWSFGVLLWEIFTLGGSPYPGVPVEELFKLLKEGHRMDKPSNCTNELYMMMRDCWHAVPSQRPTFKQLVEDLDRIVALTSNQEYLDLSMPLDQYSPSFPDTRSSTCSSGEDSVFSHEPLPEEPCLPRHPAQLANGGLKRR

FGFR3 = FGFR3 (UniProt P22607); experiment: as above
Fer (mouse) = experiment: as above
Fes = Fes (UniProt P07332); experiment: as above
Sequence of Fes (P07332 whole entry, looked up): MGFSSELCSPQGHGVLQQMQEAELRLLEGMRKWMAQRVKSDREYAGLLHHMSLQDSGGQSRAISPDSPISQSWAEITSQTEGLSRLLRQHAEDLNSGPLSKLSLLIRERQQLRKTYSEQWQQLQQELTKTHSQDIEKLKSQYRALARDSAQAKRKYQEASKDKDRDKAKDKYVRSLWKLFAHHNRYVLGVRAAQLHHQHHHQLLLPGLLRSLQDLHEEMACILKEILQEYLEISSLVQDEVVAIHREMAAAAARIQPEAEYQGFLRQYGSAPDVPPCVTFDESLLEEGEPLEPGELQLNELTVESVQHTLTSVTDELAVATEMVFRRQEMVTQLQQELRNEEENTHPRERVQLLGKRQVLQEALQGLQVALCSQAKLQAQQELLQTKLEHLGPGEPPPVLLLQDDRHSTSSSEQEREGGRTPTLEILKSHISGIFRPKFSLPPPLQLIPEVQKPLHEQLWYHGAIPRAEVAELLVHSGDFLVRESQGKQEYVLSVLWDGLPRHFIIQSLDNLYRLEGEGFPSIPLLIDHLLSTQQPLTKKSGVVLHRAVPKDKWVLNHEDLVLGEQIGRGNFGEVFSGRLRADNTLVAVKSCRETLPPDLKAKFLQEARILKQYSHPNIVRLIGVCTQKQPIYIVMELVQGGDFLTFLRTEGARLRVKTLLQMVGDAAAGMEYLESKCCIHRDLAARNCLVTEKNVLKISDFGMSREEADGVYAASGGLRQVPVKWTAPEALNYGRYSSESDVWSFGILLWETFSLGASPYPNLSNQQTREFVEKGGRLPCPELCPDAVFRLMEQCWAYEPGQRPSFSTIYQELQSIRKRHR

Fyn = Fyn (UniProt P06241); experiment: as above
Sequence of Fyn (P06241 whole entry, looked up): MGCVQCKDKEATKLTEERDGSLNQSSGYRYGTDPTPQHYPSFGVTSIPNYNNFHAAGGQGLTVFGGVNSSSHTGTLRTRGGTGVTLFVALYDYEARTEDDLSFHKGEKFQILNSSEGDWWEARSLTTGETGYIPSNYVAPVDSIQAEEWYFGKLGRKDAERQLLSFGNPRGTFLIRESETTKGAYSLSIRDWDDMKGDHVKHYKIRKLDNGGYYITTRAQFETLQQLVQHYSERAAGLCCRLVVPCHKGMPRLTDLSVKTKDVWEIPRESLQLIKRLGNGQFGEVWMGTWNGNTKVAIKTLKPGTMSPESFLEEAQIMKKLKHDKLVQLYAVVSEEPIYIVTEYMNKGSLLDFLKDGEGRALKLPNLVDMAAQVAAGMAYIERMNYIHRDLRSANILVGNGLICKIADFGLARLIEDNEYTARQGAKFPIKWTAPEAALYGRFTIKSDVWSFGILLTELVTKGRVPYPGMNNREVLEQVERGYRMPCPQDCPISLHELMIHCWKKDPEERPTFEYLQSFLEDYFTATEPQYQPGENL

Hck = Hck (UniProt P08631); experiment: as above
Sequence of Hck (P08631 whole entry, looked up): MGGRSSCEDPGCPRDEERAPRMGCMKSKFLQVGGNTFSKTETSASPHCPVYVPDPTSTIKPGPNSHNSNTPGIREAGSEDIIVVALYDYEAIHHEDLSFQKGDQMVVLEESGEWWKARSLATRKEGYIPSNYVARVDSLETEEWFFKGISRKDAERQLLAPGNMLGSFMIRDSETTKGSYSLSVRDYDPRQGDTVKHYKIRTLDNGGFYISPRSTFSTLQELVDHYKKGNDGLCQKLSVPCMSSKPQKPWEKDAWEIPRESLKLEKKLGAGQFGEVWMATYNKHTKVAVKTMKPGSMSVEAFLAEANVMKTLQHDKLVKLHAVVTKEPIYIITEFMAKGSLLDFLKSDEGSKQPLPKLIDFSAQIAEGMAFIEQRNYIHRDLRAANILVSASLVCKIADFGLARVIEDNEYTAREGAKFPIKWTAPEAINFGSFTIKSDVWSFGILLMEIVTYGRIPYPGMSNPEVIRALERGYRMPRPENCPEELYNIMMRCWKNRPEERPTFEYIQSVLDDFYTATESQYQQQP

Jak2 = Jak2 (UniProt O60674); experiment: as above
MERTK = MERTK (UniProt Q12866); experiment: as above
c-Abl (mouse) = experiment: as above
c-Src = experiment: as above
Grb2 SH2 = Grb2 SH2 (UniProt P62993); experiment: SH2 binding enrichment of the phosphorylated peptide, bacterial display (enrichment ratio); higher = better substrate or ligand; peptides without Tyr show the background
Sequence of Grb2 SH2 (P62993 whole entry, looked up): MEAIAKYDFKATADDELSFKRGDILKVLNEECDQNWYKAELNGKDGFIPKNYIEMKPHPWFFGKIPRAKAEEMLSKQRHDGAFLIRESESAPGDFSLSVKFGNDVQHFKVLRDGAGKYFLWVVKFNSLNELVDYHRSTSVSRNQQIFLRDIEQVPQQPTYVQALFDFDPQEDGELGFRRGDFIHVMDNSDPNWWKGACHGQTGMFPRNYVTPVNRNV

SHP2-C SH2 = experiment: as above
c-Src SH2 = experiment: as above
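Throughout, for SH2 binding enrichment of the phosphorylated peptide, bacterial display: peptide library displayed on the E. coli surface as eCPX fusions, selected cells deep-sequenced, score is each peptide's frequency after selection divided by its frequency in the input.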
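Throughout, for phosphorylation enrichment, bacterial display: 11-residue human phosphosite peptides and single-mutation variants displayed on the E. coli surface, counted by deep sequencing, each peptide's frequency after selection divided by its frequency in the unselected input library; frequency after pTyr selection over input frequency; kinase dosed for 20-30% of maximal phosphorylation in three min.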

Sequence of EPHB1 (P54762 whole entry, looked up): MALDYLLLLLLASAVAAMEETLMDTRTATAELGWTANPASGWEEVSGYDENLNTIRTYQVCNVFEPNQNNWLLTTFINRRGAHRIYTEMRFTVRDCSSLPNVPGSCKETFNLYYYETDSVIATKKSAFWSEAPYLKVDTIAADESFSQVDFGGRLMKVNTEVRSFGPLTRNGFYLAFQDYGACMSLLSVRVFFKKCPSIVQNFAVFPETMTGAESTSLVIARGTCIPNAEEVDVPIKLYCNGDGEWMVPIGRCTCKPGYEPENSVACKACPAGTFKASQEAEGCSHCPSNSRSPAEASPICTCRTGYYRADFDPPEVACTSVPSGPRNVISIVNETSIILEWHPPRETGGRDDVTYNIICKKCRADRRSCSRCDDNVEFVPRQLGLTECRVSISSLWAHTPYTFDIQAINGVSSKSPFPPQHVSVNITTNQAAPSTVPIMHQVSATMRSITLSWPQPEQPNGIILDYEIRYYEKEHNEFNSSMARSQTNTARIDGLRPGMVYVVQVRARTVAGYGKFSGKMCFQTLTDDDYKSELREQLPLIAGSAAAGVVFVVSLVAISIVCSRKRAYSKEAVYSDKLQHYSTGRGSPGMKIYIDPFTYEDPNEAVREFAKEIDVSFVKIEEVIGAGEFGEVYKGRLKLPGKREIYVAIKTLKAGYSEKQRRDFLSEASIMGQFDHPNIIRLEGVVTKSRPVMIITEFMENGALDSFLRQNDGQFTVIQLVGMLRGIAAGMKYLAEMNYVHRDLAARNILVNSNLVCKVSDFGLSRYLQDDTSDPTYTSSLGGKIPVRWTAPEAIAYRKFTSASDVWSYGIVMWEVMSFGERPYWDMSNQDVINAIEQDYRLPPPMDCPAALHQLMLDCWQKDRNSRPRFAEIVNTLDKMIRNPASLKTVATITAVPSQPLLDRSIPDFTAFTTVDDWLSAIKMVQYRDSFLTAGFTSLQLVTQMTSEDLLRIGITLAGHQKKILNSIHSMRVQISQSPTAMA
Sequence of EPHB2 (P29323 whole entry, looked up): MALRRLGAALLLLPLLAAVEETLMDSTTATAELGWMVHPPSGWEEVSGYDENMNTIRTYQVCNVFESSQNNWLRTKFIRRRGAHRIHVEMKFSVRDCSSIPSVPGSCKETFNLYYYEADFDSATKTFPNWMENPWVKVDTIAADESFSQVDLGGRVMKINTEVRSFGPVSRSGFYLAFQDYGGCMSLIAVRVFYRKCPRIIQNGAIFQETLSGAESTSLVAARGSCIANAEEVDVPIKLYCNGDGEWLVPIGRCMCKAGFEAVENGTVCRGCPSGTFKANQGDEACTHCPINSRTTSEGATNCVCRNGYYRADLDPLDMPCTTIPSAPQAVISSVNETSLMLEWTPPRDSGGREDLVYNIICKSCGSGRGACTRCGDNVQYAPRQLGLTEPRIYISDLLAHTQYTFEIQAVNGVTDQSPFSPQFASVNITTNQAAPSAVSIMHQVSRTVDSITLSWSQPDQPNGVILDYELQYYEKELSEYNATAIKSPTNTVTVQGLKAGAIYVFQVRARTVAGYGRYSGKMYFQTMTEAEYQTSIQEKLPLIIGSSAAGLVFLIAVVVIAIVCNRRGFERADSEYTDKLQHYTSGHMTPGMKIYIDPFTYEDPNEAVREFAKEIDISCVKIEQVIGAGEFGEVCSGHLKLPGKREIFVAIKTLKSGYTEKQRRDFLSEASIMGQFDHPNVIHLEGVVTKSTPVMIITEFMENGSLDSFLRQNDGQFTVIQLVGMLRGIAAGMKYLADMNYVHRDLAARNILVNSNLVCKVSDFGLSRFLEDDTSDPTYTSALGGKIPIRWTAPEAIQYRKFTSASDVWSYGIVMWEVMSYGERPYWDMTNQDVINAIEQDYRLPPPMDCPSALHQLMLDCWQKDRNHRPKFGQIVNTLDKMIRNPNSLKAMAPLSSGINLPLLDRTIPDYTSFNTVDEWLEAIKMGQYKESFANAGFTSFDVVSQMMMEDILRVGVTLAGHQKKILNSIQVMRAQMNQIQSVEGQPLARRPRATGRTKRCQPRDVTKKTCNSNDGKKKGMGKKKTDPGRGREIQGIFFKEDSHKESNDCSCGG

Row | Sequence | phosphorylation enrichment (AncSZ) | phosphorylation enrichment (EPHB1) | phosphorylation enrichment (EPHB2) | phosphorylation enrichment (FGFR1) | phosphorylation enrichment (FGFR3) | phosphorylation enrichment (Fer (mouse)) | phosphorylation enrichment (Fes) | phosphorylation enrichment (Fyn) | phosphorylation enrichment (Hck) | phosphorylation enrichment (Jak2) | phosphorylation enrichment (MERTK) | phosphorylation enrichment (c-Abl (mouse)) | phosphorylation enrichment (c-Src) | SH2 binding enrichment (Grb2 SH2) | SH2 binding enrichment (SHP2-C SH2) | SH2 binding enrichment (c-Src SH2)
1 | YKGKKYKPLDL [RPL35_Y78] | 0.462 | 0.283 | 0.391 | 0.405 | 0.45 | 0.537 | 0.541 | 0.511 | 0.404 | 0.51 | 0.581 | 0.508 | 0.541 | 0.821 | 0.955 | 0.429
2 | YLRTGYSIPYG [TGM1_Y370_V372I] | 0.777 | 0.451 | 0.461 | 0.554 | 0.574 | 0.384 | 0.677 | 0.375 | 0.39 | 0.804 | 1.21 | 0.702 | 0.457 | 1.01 | 2.11 | 9.77
3 | YNDSTYNQQLI [ZPLD1_Y198] | 0.801 | 0.521 | 0.465 | 0.495 | 0.471 | 0.491 | 0.738 | 0.479 | 0.506 | 0.612 | 0.435 | 0.533 | 0.51 | 0.784 | 0.371 | 0.568
4 | YPKARYRWLVL [APTX_Y214_H215R] | 0.786 | 0.434 | 0.553 | 0.611 | 0.492 | 0.456 | 0.787 | 0.464 | 0.422 | 0.6 | 0.478 | 0.499 | 0.399 | 1.08 | 1.02 | 0.933
5 | YRDALYKSMVD [PHEX_Y250_F252S] | 0.757 | 0.564 | 0.805 | 0.458 | 0.608 | 0.421 | 0.856 | 0.495 | 0.525 | 0.717 | 0.4 | 0.592 | 0.449 | 0.804 | 0.666 | 0.457
6 | YRIGPYQPNVP [MATR3_Y784] | 0.685 | 0.565 | 0.504 | 0.769 | 0.712 | 0.5 | 0.736 | 0.505 | 0.486 | 0.44 | 0.358 | 0.501 | 0.402 | 0.765 | 0.883 | 0.77
7 | YRKNIYNVKST [SYNE2_Y575] | 0.488 | 0.337 | 0.423 | 0.384 | 0.48 | 0.425 | 0.47 | 0.458 | 0.324 | 0.37 | 0.354 | 0.405 | 0.474 | 0.753 | 0.581 | 0.422
8 | YRQNVYIPGSN [PCDHGA1_Y895] | 0.564 | 0.421 | 0.429 | 0.427 | 0.519 | 0.405 | 0.626 | 0.435 | 0.435 | 0.576 | 0.424 | 0.531 | 0.454 | 0.829 | 0.661 | 0.43
9 | YSMGCYEISLG [HMGCL_Y198] | 2.12 | 1.56 | 1.18 | 0.69 | 0.817 | 2.77 | 1.47 | 2.15 | 1.22 | 1.38 | 2.66 | 1.08 | 2.35 | 0.551 | 0.658 | 0.582
10 | YSNVLYRPRGA [TMIGD2_Y197] | 0.923 | 1.34 | 0.6 | 0.784 | 0.614 | 4.97 | 0.753 | 0.615 | 0.651 | 0.596 | 2.23 | 0.692 | 0.558 | 0.907 | 0.683 | 1.05
11 | YSNVLYRPRGP [TMIGD2_Y197_A202P] | 0.796 | 0.492 | 0.576 | 0.685 | 0.525 | 1.83 | 0.656 | 0.501 | 0.69 | 0.501 | 0.856 | 0.461 | 0.421 | 0.717 | 4.56 | 0.682
12 | YTFTSYYMHWV [IGHV1-46_Y51] | 1.64 | 1.84 | 1.27 | 3.64 | 2.89 | 1.78 | 1.71 | 0.771 | 1.3 | 3.85 | 4.16 | 1.06 | 0.952 | 0.978 | 1.1 | 0.613
13 | YTGSTYRVGDT [FN1_Y106_N104S] | 0.72 | 0.422 | 0.453 | 0.726 | 0.58 | 0.405 | 0.748 | 0.464 | 0.529 | 0.715 | 0.355 | 0.595 | 0.48 | 0.836 | 0.902 | 0.538
14 | YVPSNYVAEDR [FRK_Y104_I100V] | 0.886 | 0.53 | 0.424 | 0.441 | 0.632 | 0.497 | 0.754 | 0.411 | 0.382 | 0.655 | 0.414 | 0.584 | 0.392 | 0.735 | 0.738 | 0.608
15 | YYHCTYKKRMI [CLEC12A_Y242] | 1.37 | 0.525 | 0.601 | 4.79 | 3.12 | 0.558 | 1.21 | 0.59 | 0.78 | 1.29 | 1.48 | 0.994 | 0.599 | 1.25 | 0.966 | 1.11
